This series concerns Escherichia coli TOP10. The series is described as follows: shrunken log2 fold change of peptide-encoding DNA abundance (4.5 h post-induction vs induction); higher = less antimicrobial activity (less host growth inhibition). The following applies: time post-induction: 4.5 h; library: site-saturation at positions 5, 18, 19, 20.
Regarding RRIRYRPPRLPRPRPRPPQSPRP, the “shrunken log2 fold change” value is -0.118. On to RRIRDRPPRLPRPRPRPGQMPRP, for which the “shrunken log2 fold change” value is -0.0138. On to RRIRERPPRLPRPRPRPQYDPRP, for which the “shrunken log2 fold change” value was -0.418. In the case of RRIRTRPPRLPRPRPRPQQIPRP, the “shrunken log2 fold change” value was -0.0971. Turning to RRIRTRPPRLPRPRPRPDMIPRP, the “shrunken log2 fold change” value is 0.00205.

Turning to RRIRQRPPRLPRPRPRPNCAPRP, the “shrunken log2 fold change” value came to 0.00462. For RRIRNRPPRLPRPRPRPNSIPRP, the “shrunken log2 fold change” value is -0.728. Regarding RRIRMRPPRLPRPRPRPHHMPRP, the “shrunken log2 fold change” value is -0.321. Regarding RRIRQRPPRLPRPRPRPFAYPRP, the “shrunken log2 fold change” value was -0.0651.

For the sequence RRIRGRPPRLPRPRPRPAWKPRP, the “shrunken log2 fold change” value stood at 0.122. Turning to RRIRERPPRLPRPRPRPDRYPRP, the “shrunken log2 fold change” value was -0.00433. The result for RRIRSRPPRLPRPRPRPPWRPRP reads 0.614. For RRIRYRPPRLPRPRPRPMKMPRP, the “shrunken log2 fold change” value is -0.528. Turning to RRIRMRPPRLPRPRPRPSSLPRP, the “shrunken log2 fold change” value was -0.156. As to RRIRRRPPRLPRPRPRPNHRPRP, the “shrunken log2 fold change” value was -0.0368. As to RRIRSRPPRLPRPRPRPHTKPRP, the “shrunken log2 fold change” value came to 0.0141. Regarding RRIRLRPPRLPRPRPRPSHRPRP, the “shrunken log2 fold change” value was -0.0457. On to RRIRPRPPRLPRPRPRPRVNPRP, for which the “shrunken log2 fold change” value is -0.194.

On to RRIRQRPPRLPRPRPRPNMHPRP, for which the “shrunken log2 fold change” value was -0.34. Take RRIRARPPRLPRPRPRPNNNPRP: the “shrunken log2 fold change” value was -0.471. In the case of RRIRFRPPRLPRPRPRPSCLPRP, the “shrunken log2 fold change” value is -0.502. As to RRIRERPPRLPRPRPRPEYLPRP, the “shrunken log2 fold change” value is -1.13. With RRIRARPPRLPRPRPRPMLDPRP the figure was 0.504; with RRIRARPPRLPRPRPRPGRWPRP, 0.609; with RRIRYRPPRLPRPRPRPKRGPRP, 0.00607. With RRIRMRPPRLPRPRPRPSTDPRP the figure was 0.949; with RRIRKRPPRLPRPRPRPLMDPRP, 0.16; with RRIRERPPRLPRPRPRPGYDPRP, -0.191.

For RRIRHRPPRLPRPRPRPLSDPRP, the “shrunken log2 fold change” value was -0.0615. The result for RRIRMRPPRLPRPRPRPVQNPRP reads 0.0136; that for RRIRVRPPRLPRPRPRPCPKPRP, -0.0457. As to RRIRYRPPRLPRPRPRPAIMPRP, the “shrunken log2 fold change” value was -0.196. The result for RRIRLRPPRLPRPRPRPTEAPRP reads -0.00104. As to RRIRIRPPRLPRPRPRPSRMPRP, the “shrunken log2 fold change” value is -0.271.

Regarding RRIRHRPPRLPRPRPRPFLLPRP, the “shrunken log2 fold change” value was -0.502. With RRIRIRPPRLPRPRPRPYELPRP the figure was -0.0687; with RRIRMRPPRLPRPRPRPVMSPRP, 0.134.

For the sequence RRIRARPPRLPRPRPRPPENPRP, the “shrunken log2 fold change” value came out at 0.576. Turning to RRIRARPPRLPRPRPRPYQGPRP, the “shrunken log2 fold change” value was -0.135.

On to RRIRSRPPRLPRPRPRPTSEPRP, for which the “shrunken log2 fold change” value was 0.292. The result for RRIRARPPRLPRPRPRPSKSPRP reads 0.0305. The result for RRIRYRPPRLPRPRPRPRCSPRP reads -0.173. With RRIRPRPPRLPRPRPRPSKEPRP the figure was -0.374; with RRIRHRPPRLPRPRPRPCSGPRP, -0.0968. With RRIRDRPPRLPRPRPRPCNIPRP, the “shrunken log2 fold change” value is -0.228. Consider RRIRWRPPRLPRPRPRPTDMPRP, for which the “shrunken log2 fold change” value is 0.00348.

On to RRIRMRPPRLPRPRPRPGLGPRP, for which the “shrunken log2 fold change” value is 0.914. For RRIRERPPRLPRPRPRPENVPRP, the “shrunken log2 fold change” value is -0.0141. In the case of RRIRARPPRLPRPRPRPSDYPRP, the “shrunken log2 fold change” value was -0.108.

As for RRIRVRPPRLPRPRPRPGDCPRP, the “shrunken log2 fold change” value was found to be 0.404. With RRIRWRPPRLPRPRPRPKYFPRP the figure was -0.302.

For RRIRNRPPRLPRPRPRPRIHPRP, the “shrunken log2 fold change” value was -0.184. Turning to RRIRPRPPRLPRPRPRPLERPRP, the “shrunken log2 fold change” value was 0.277. As to RRIRKRPPRLPRPRPRPMGNPRP, the “shrunken log2 fold change” value is 0.111. Consider RRIRCRPPRLPRPRPRPDRGPRP, for which the “shrunken log2 fold change” value stood at 0.0229. With RRIRWRPPRLPRPRPRPNNGPRP the figure was -0.165; with RRIRTRPPRLPRPRPRPQTCPRP, -0.176; with RRIRDRPPRLPRPRPRPNPGPRP, -0.117. With RRIRNRPPRLPRPRPRPFTVPRP the figure was -0.00101.

Regarding RRIRCRPPRLPRPRPRPMQGPRP, the “shrunken log2 fold change” value was -0.0484. With RRIRTRPPRLPRPRPRPHSYPRP the figure was -1.23. With RRIRTRPPRLPRPRPRPKVYPRP the figure was 0.0324; with RRIRWRPPRLPRPRPRPIARPRP, -0.00663; with RRIRNRPPRLPRPRPRPLPRPRP, 0.102. With RRIRERPPRLPRPRPRPKGYPRP the figure was 0.016. On to RRIRYRPPRLPRPRPRPKTPPRP, for which the “shrunken log2 fold change” value was 0.103.

As for RRIRYRPPRLPRPRPRPCTAPRP, the “shrunken log2 fold change” value was -1.4.

As for RRIRYRPPRLPRPRPRPSNVPRP, the “shrunken log2 fold change” value is -1.01. For the sequence RRIRSRPPRLPRPRPRPDCVPRP, the “shrunken log2 fold change” value was -0.0759. Turning to RRIRIRPPRLPRPRPRPQSRPRP, the “shrunken log2 fold change” value is -0.0532. Take RRIRWRPPRLPRPRPRPAIDPRP: the “shrunken log2 fold change” value stood at 0.294. The result for RRIRERPPRLPRPRPRPPVHPRP reads -0.145. Take RRIRLRPPRLPRPRPRPHFNPRP: the “shrunken log2 fold change” value is -0.386. With RRIRPRPPRLPRPRPRPYKEPRP the figure was -0.382; with RRIRARPPRLPRPRPRPTCHPRP, 0.427; with RRIRARPPRLPRPRPRPMDLPRP, -0.292. With RRIRMRPPRLPRPRPRPFRIPRP the figure was 0.0254. With RRIRQRPPRLPRPRPRPWKPPRP the figure was -0.00884. On to RRIRDRPPRLPRPRPRPNFYPRP, for which the “shrunken log2 fold change” value is -0.109. The result for RRIRYRPPRLPRPRPRPRCKPRP reads -0.573; that for RRIRYRPPRLPRPRPRPINFPRP, -0.299; that for RRIRQRPPRLPRPRPRPQRYPRP, -0.0112. The result for RRIRVRPPRLPRPRPRPSYFPRP reads -0.131. With RRIRTRPPRLPRPRPRPGWVPRP the figure was -0.0236; with RRIRARPPRLPRPRPRPMEDPRP, -0.0391; with RRIRVRPPRLPRPRPRPLDWPRP, 0.188.

For the sequence RRIRNRPPRLPRPRPRPIFCPRP, the “shrunken log2 fold change” value was -0.0368. RRIRCRPPRLPRPRPRPIWTPRP: the “shrunken log2 fold change” value is -0.0919. Regarding RRIRTRPPRLPRPRPRPVAHPRP, the “shrunken log2 fold change” value was -0.0854. For RRIRKRPPRLPRPRPRPKPNPRP, the “shrunken log2 fold change” value came out at 0.516. The result for RRIRHRPPRLPRPRPRPVSVPRP reads -0.225. The result for RRIRHRPPRLPRPRPRPLVGPRP reads 0.00867. For RRIRVRPPRLPRPRPRPMYCPRP, the “shrunken log2 fold change” value is -0.233. With RRIRLRPPRLPRPRPRPEENPRP the figure was -0.00256. The result for RRIRDRPPRLPRPRPRPHENPRP reads 0.116. RRIRFRPPRLPRPRPRPVWLPRP: the “shrunken log2 fold change” value was -0.0732. The result for RRIRARPPRLPRPRPRPCAKPRP reads 0.984. On to RRIRARPPRLPRPRPRPCNNPRP, for which the “shrunken log2 fold change” value is -0.352. Take RRIRDRPPRLPRPRPRPASTPRP: the “shrunken log2 fold change” value worked out at 0.397. As for RRIRSRPPRLPRPRPRPCMVPRP, the “shrunken log2 fold change” value is -0.511. For the sequence RRIRNRPPRLPRPRPRPWGGPRP, the “shrunken log2 fold change” value was -0.113. The result for RRIRRRPPRLPRPRPRPMPLPRP reads 2.47. In the case of RRIRKRPPRLPRPRPRPILMPRP, the “shrunken log2 fold change” value is 0.0297. The result for RRIRLRPPRLPRPRPRPQGAPRP reads -0.145; that for RRIRIRPPRLPRPRPRPVMTPRP, -0.166. The result for RRIRVRPPRLPRPRPRPHLRPRP reads 0.248; that for RRIRHRPPRLPRPRPRPPMNPRP, -0.543; that for RRIRNRPPRLPRPRPRPACAPRP, 0.3.

Turning to RRIRCRPPRLPRPRPRPSHYPRP, the “shrunken log2 fold change” value was -0.349. With RRIRARPPRLPRPRPRPLRQPRP the figure was 0.736; with RRIRSRPPRLPRPRPRPSASPRP, 0.0953; with RRIRDRPPRLPRPRPRPHFDPRP, 0.141.

Turning to RRIRGRPPRLPRPRPRPDREPRP, the “shrunken log2 fold change” value is 0.34. With RRIRTRPPRLPRPRPRPCTPPRP the figure was -0.214; with RRIRCRPPRLPRPRPRPPFGPRP, 0.213.

As for RRIRSRPPRLPRPRPRPKHIPRP, the “shrunken log2 fold change” value is -0.368. The result for RRIRHRPPRLPRPRPRPKNKPRP reads -0.521; that for RRIRMRPPRLPRPRPRPYKIPRP, -0.544.

For RRIRERPPRLPRPRPRPIMFPRP, the “shrunken log2 fold change” value is -0.193. The result for RRIRPRPPRLPRPRPRPTVGPRP reads 0.555. With RRIRWRPPRLPRPRPRPNLEPRP the figure was 0.322.

In the case of RRIRGRPPRLPRPRPRPKWKPRP, the “shrunken log2 fold change” value turned out to be 0.202. With RRIRCRPPRLPRPRPRPNDDPRP the figure was -0.161; with RRIRYRPPRLPRPRPRPTGVPRP, -0.0415.

With RRIRYRPPRLPRPRPRPMSAPRP, the “shrunken log2 fold change” value is -0.0208.

The record behind these values is the supplement of paper PMC9112550, “Optimization of the antimicrobial peptide Bac7 by deep mutational scanning” (BMC Biology, 2022).
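Also: peptides expressed intracellularly from a pBAD plasmid library in pooled LB shake-flask culture, induced with 0.3% L-arabinose, DNA abundance read by NGS, three biological replicates, DESeq2 with apeglm shrinkage.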
